This is an account of results in article PMC2729365 (Nature structural & molecular biology, 2009).

Series [1] deals with the molecule itself. The series is described as follows: AUC.
Series [2] deals with the molecule itself. The series can be described thus: AUC. This is another data set of the same source.

B1: GluR6 amino terminal domain (GluR6 R1R2 ATD, residues 1-389) expressed in wild type HEK293 cells (domain or fragment)
chain: TTHVLRFGGIFEYVESGPMGAEELAFRFAVNTINRNRTLLPNTTLTYDTQKINLYDSFEASKKACDQLSLGVAAIFGPSHSSSANAVQSICNALGVPHIQTRWKHQVSDNKDSFYVSLYPDFSSLSRAILDLVQFFKWKTVTVVYDDSTGLIRLQELIKAPSRYNLRLKIRQLPADTKDAKPLLKEMKRGKEFHVIFDCSHEMAAGILKQALAMGMMTEYYHYIFTTLDLFALDVEPYRYSGVNMTGFRILNTENTQVSSIIEKWSMERLQAPPKPDSGLLDGFMTTDAALMYDAVHVVSVAVQQFPQMTVSSLQCNRHKPWRFGTRFMSLIKEAHWEGLTGRITFNKTNGLRTDFDLDVISLKEEGLEKIGTWDPASGLNMTESQKGK
modifications: N-linked glycans at five sites, non uniform (complex) glycosylation
In series [1], B1 yielded a Kd of 11.3 µM. Moreover, the “stoichiometry N” value in series [2] was determined as 2.

One may read the Kd as the concentration at which binding is half-saturated. A word on the stoichiometry N: it is the number of molecules, sites or subunits per partner or assembly.
